Laboratory results as given in publication PMC2195672.

Target: HLA-A2 molecules immunoaffinity-purified from Jesthom cells, with added human β2-microglobulin (human (endogenous in Jesthom) | human)

## HBV core 18-27, synthetic peptide
  Kd: 40 nM
